The results in this text go back to paper PMC11846989 (Communications Biology, 2025).

The data set “SEC” concerns the molecule itself. Description: SEC.
The data set “SEC-MALS” concerns the molecule itself. Description: SEC-MALS.

B1: human GBP2 G domain (1-309), wild type (domain or fragment, UniProt P32456 1-309, looked up)
chain: MAPEINLPGPMSLIDNTKGQLVVNPEALKILSAITQPVVVVAIVGLYRTGKSYLMNKLAGKKNGFSLGSTVKSHTKGIWMWCVPHPKKPEHTLVLLDTEGLGDIEKGDNENDSWIFALAILLSSTFVYNSMGTINQQAMDQLHYVTELTDRIKANSSPGNNSVDDSADFVSFFPAFVWTLRDFTLELEVDGEPITADDYLELSLKLRKGTDKKSKSFNDPRLCIRKFFPKRKCFVFDWPAPKKYLAHLEQLKEEELNPDFIEQVAEFCSYILSHSNVKTLSGGIPVNGPRLESLVLTYVNAISSGDLPC
For B1, the “stoichiometry N” value in the data set “SEC” worked out at 2.

B2: full-length human GBP2 (guanylate-binding protein 2), wild type (natural protein, UniProt P32456 1-591, looked up)
chain: MAPEINLPGPMSLIDNTKGQLVVNPEALKILSAITQPVVVVAIVGLYRTGKSYLMNKLAGKKNGFSLGSTVKSHTKGIWMWCVPHPKKPEHTLVLLDTEGLGDIEKGDNENDSWIFALAILLSSTFVYNSMGTINQQAMDQLHYVTELTDRIKANSSPGNNSVDDSADFVSFFPAFVWTLRDFTLELEVDGEPITADDYLELSLKLRKGTDKKSKSFNDPRLCIRKFFPKRKCFVFDWPAPKKYLAHLEQLKEEELNPDFIEQVAEFCSYILSHSNVKTLSGGIPVNGPRLESLVLTYVNAISSGDLPCMENAVLALAQIENSAAVEKAIAHYEQQMGQKVQLPTETLQELLDLHRDSEREAIEVFMKNSFKDVDQMFQRKLGAQLEARRDDFCKQNSKASSDCCMALLQDIFGPLEEDVKQGTFSKPGGYRLFTQKLQELKNKYYQVPRKGIQAKEVLKKYLESKEDVADALLQTDQSLSEKEKAIEVERIKAESAEAAKKMLEEIQKKNEEMMEQKEKSYQEHVKQLTEKMERDRAQLMAEQEKTLALKLQEQERLLKEGFENESKRLQKDIWDIQMRSKSLEPICNIL
For the protein B2, in “SEC-MALS”, the “stoichiometry N” value was found to be 2.
